Laboratory results published in the supplement of paper PMC12764529.
± gives the half width of the 95% confidence interval.

Assays:
[1] = folding stability dG unfold (combined trypsin and chymotrypsin); higher = more stable
Outline: (§1)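 Bayesian fitting of sequencing counts gave K50 for each design. Unfolding free energy followed by setting this against a sequence-predicted unfolded-state K50 and a shared folded-state K50, either per protease or with trypsin and chymotrypsin combined. The designs, under 80 residues and lacking cysteine, were digested in a PA-tagged cDNA display format at 11 threefold-diluted protease concentrations and without protease, and only those with AlphaFold2 dimer inter-PAE above 15 were kept.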

[2] = folding stability dG unfold from chymotrypsin proteolysis; higher = more stable
Outline: as §1

[3] = folding stability dG unfold from trypsin proteolysis; higher = more stable
Outline: as §1

Sequence	folding stability dG unfold [1] [kcal/mol]	folding stability dG unfold [2] [kcal/mol]	folding stability dG unfold [3] [kcal/mol]
SAFRIKIELWNPNGKPQEHTFPVPPGDPDKLVEEIEDEVQKHHPNDGYKMRAEILEVTPNGWVTIRIWYSAG [r14_622_TrROS]	2.79 ± 0.18	3.01 ± 0.11	2.66 ± 0.077
SAGAAPGEPVVLVLPDGTVIPVIPRPDGSATLDAVAPSADGTYTVTASLPATGTTVTLELSAPPSFVAASAG [r5_394_TrMRF]	1.16 ± 0.043	0.824 ± 0.052	1.43 ± 0.038
SAGAKEITAEELAEIVREFAAALPPDVKEPVTVEITVPLEDGRVLVFKVTVERSPDGVKATVEVSPGASAGG [r19_220_TrMRF]	3.21 ± 0.18	3.43 ± 0.037	2.4 ± 0.13
SAGAKVTVEPVKVEPLPNGEVKVTAKVTIYDPNTTKPTEIEVTGTYKLHPNGKPVKPETIVAEAIKKAASAG [r5_604_TrMRF]	0.459 ± 0.14	0.337 ± 0.17	0.426 ± 0.038
SAGALEETTLPLPRPESLPDVSPEVLAALILALLSAVGVTVEVLSSDPANPVTAMVATRDGRVVLRALASAG [r5_80_JUSTAS]	2.06 ± 0.068	2.34 ± 0.051	1.58 ± 0.049
SAGAPLEVPGPLVTVTEEEVPGKPLVFIPTPDGLIVVDLVTGKAERYPLYSEEPIVLDVPPGVVIELPSAGG [r19_138_JUSTAS]	0.819 ± 0.077	0.398 ± 0.13	1.02 ± 0.073
SAGASVEQWSLTSVEVTELPGPEVVVPMTARLPDGTEVVMSGVVGPGSVTLTSPDGSTSTLAIPPALASAGG [r19_84_JUSTAS]	1.03 ± 0.04	0.734 ± 0.045	1.2 ± 0.023
SAGATFKPGQTVTVVEVKVEVSVSLSRNADGSVSLSVSVRVEVKTTTVTLPEPATVTLPPGVKSLEDLLSAG [r5_770_TrROS_Hall]	3.27 ± 0.089	3.73 ± 0.096	2.37 ± 0.097
SAGAVEKLRKELEELGYEVELEEVEDEETGKTYFILRIRNPDGEIYEIKVDKKTGEIVEIFKVDNLEELSAG [r5_938_TrROS_Hall]	4.14 ± 0.19	4.17 ± 0.064	3.83 ± 0.17
SAGDAIADLLKEAGFEIDSVDSIEPTDGSYVIGFKFEFPNGWYMEITIWIDPNNPDKIEIDIKMQPPDESAG [r5_683_TrROS]	4.06 ± 0.45	4.43 ± 0.33	2.6 ± 0.28
SAGDALKDLAPDVEITPSSFPFAFPPSRPVLAASIVAHPDNTITVFLTEVHPDGGARVLVYTLHLSDKSAGG [r19_125_TrMRF]	3.05 ± 0.14	3.2 ± 0.051	2.78 ± 0.12
SAGDALKEAAKPGEEVTVRLRLTLTFTTETFTDDDGRERTVETVTVTVELEARVVAVDPETGELVIELRSAG [r5_5_TrROS_Hall]	3.52 ± 0.18	4.19 ± 0.14	2.56 ± 0.12
SAGDEIEEKVKEILEKLNPDEPVVIKRTKDGRILAENPKTGKFIIFDISPDGTIKIVKVVPAEEAKKLGSAG [r5_852_TrMRF]	2.18 ± 0.19	2.52 ± 0.071	1.47 ± 0.12
SAGDGITVNPEKVTLTLDITLPDGTVLRVTVTLTPDGVEVTVEPVPVPPLPGATSPEEAEELLKQALASSAG [r5_272_TrMRF]	2.34 ± 0.083	2.37 ± 0.086	1.99 ± 0.09
SAGDKGRYHFPFTVTMPPGKPPSQIEDALGKYGWDDVDINREPPPNGETKYTINVHMPKEDLPKLLEAFSAG [r5_376_TrROS]	0.963 ± 0.12	0.933 ± 0.26	0.895 ± 0.039
SAGDKIEIKFNIPMPEGPIRIMVWDNGKREEKDIPPGEEVTIKIDLPPGDDYRIAIYYPDGNMHEFPINSAG [r5_187_TrROS]	2.47 ± 0.25	3.31 ± 0.14	1.65 ± 0.17

Sequence	folding stability dG unfold [1] [kcal/mol]	folding stability dG unfold [2] [kcal/mol]	folding stability dG unfold [3] [kcal/mol]
SAGDNMYKYDYENPWYGIKIEVWVSPNGQIVSIKVKIEKVPPVPPKPPIDPEDMVPDPDGKYRSPNDLDSAG [r5_685_TrROS]	1.95 ± 0.099	2.26 ± 0.026	1.4 ± 0.098
SAGDVVEIEITYWVPPDEMTVDEFVDHIMSMLPGVKVKSIEIDEIHPYPDGWYEVTVNYTIEVPPGQEISAG [r5_682_TrROS]	2.81 ± 0.16	2.82 ± 0.12	2.53 ± 0.39
SAGDWYIVIKITIYHPNKREREFPIVFDWKDGKIEIAPEFLQNIAEELGLPPNMKIEIEIVEIMPPNDSAGG [r19_287_TrROS]	2.43 ± 0.55	3.22 ± 0.099	1.75 ± 0.12
SAGEEIAKRLAEELKEKGYEVEVKVTVEYDEETGEVTITIEIKVKPKPAPPVKIEKKLEGMSEEEKKALSAG [r5_413_TrROS_Hall]	0.187 ± 0.29	0.137 ± 0.084	0.113 ± 0.12
SAGEEPPEVTIKVVEKDGKLVIEVEYNGKTLTITLEDGEKIEIKFPEGMSEEELLEEAKRLAKELAEKSAGG [r19_170_TrROS_Hall]	2.63 ± 0.39	1.9 ± 0.25	3.05 ± 0.35
SAGEIKITVEEVEDGELLVTVEITAESKEEALKALEDLIRELFGEDVEIVSVEFDEETKRIRVTIRIKPSAG [r5_810_TrROS_Hall]	4.35 ± 0.35	3.51 ± 0.29	4.25 ± 0.21
SAGEKEFEIVEVKVNKETNEVYFLVRDKEKNRLIKVHSNGTVEIYDLKDPGKKITINMSLEELLALLKKSAG [r5_491_TrROS_Hall]	4.08 ± 0.19	4.26 ± 0.19	2.49 ± 0.16
SAGEKIKEALKKAGVEKVEIVEIKRLKNGKVLIVIRLHPDMSEEQRRRLLKALADALREEFPDVKIVELSAG [r5_101_TrROS_Hall]	4.5 ± 0.052	4.33 ± 0.051	4.79 ± 0.13
SAGEKKEKEKEKKKEEEEKKKKEEEKKKEEEKKKEKTLKLEFTLPDGSKIEIEMTVEELKKLGLSPEELSAG [r5_12_TrROS_Hall]	1.03 ± 0.42	1.29 ± 0.12	0.836 ± 0.14
SAGEKPEKPPEVTITITSVKVERLPDGTVVVEVEAEIEVDGVTLTVRARFVYRDGKLFLEVEVRLEPLPSAG [r5_267_TrROS_Hall]	4.59 ± 0.95	5.47 ± 0.24	3.5 ± 0.19
SAGEKVEITLVVKVEKDEDGRYRLTEEELREIAKALGLDFEVKSVEIERVPGYLVIRVTVDGKEYEFLSAGG [r19_398_TrROS_Hall]	2.98 ± 0.069	3.04 ± 0.033	2.95 ± 0.089
SAGELAEKLAEELRKLFPNAEVEVEVVEVKEDYVVVKIRLRVVDEETGEEKTVEVELTLVLKPGEILPSAGG [r19_8_TrROS_Hall]	4.29 ± 0.3	4.66 ± 0.44	3.79 ± 0.14
SAGEVELEVPIEALKKLPNLEGATVRVTVKLNENGELEITIEVEKAPEPPLTEEEKKKLLEEEEKKKKSAGG [r19_313_TrROS_Hall]	1.06 ± 0.48	1.31 ± 0.31	-0.203 ± 0.63
SAGEVKPGETVTLTIVLSKEELEKLEELAKALPGVEVTEVKVEKLPDGLVRVTITVTKEALEKLKELLESAG [r5_554_TrROS_Hall]	3.5 ± 0.19	3.71 ± 0.22	3.28 ± 0.21
SAGEWYRMSITFDLDPDNRDQLEKIAEKIREKDGFDKIEPVEHDPSNGRVTINVYMPPEAQDKIQEALRSAG [r5_193_TrROS]	1.27 ± 0.18	1.25 ± 0.15	0.941 ± 0.1
